We go through one sequence from patent US20130165347.

The data set relates to Terminal deoxynucleotidyl transferase (TdT, pCMV-TdT / pMTdT). Description: cell_activity. To be noted: wild-type CHO KA8 cells, 19 of 27 clones, I-SceI-cleaved ends; 4% without TdT; N addition absent in Ku80- or XRCC4-deficient cells.

TACCCTGTTATCCCTA (double strand) displayed an activity (% junctions with N additions) of 70.
